Test results reported in patent US20090010911A1, “METHODS AND COMPOSITIONS FOR AFFECTING CYCLOPHILIN A REGULATION OF KINASES IN MODULATING CELLULAR ACTIVITIES” (IOWA STATE UNIVERSITY RESEARCH FOUNDATION, INC., priority 2007, published 2009).
Each block holds one molecule with its values, some of them ahead of it.

Key:
[1] = target: T1, Itk full-length enzyme (Mus musculus, UniProt Q03526); assay: In vitro kinase assay with western blotting, phosphorylation of SH2 domain-containing substrates with added free SH2 domain or CypA; type: biochemical
T1 construct: Full-length Itk, Btk and Tec and the Itk kinase domain fragments were PCR amplified; made in house; host or cells: Sf9 insect cells (baculovirus), co-infected 1:1 with Lck baculovirus
T1 sequence (Q03526 1-625): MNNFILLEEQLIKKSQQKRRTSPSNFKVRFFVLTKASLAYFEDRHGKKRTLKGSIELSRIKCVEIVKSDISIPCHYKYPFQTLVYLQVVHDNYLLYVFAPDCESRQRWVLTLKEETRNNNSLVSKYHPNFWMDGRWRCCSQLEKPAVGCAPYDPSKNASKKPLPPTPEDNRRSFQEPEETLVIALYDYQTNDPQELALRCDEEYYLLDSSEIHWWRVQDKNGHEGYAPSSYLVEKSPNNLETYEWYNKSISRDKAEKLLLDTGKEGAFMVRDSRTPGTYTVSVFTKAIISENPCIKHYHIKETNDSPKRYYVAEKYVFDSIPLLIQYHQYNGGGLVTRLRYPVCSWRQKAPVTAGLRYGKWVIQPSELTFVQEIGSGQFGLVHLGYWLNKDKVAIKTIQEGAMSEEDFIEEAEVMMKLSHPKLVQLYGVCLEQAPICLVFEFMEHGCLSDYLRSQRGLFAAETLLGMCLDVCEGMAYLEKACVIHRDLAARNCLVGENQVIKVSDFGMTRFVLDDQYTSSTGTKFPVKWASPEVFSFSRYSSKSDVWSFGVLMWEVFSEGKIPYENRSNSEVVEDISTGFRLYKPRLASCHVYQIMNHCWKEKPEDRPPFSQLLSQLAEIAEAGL
Experimental: Substrate used in each experiment is indicated above each set of blots. 4(a) (left) Itk 32 substrate was incubated with Itk full-length enzyme as before (lane 1), or with Itk 32 domain:free Itk SH2 domain in ratios of 1:10, 1:25 or 1:50 (lanes 2-4, respectively) or equivalent ratios of PI3K N-terminal SH2 domain (lanes 5-7) and subjected to an in vitro kinase assay. […] Coomassie stain and an anti-FLAG blot (bottom panels) show protein levels. (right) The PLCγ1 SH2 domain competes with the PLCγ1 substrate in a similar manner. Lane 1 contains only Itk enzyme and PLCγ1 SH2C-Y783-substrate without additional free SH2 domain. Ratios of free SH2 domain to substrate are 1:5, 1:10 or 1:50 in lanes 2-4, respectively and equivalent ratios of PI3K SH2 domain are used in lanes 5-7. Coomassie stain of the gel and an anti-Itk blot (bottom panels) show protein levels. 4(b) Same experiment as shown in (a) using the Grb2 SH2 domain as a control. (left) Itk 32 substrate was incubated with Itk full-length enzyme (lane 1), or with Itk 32 domain:free Itk SH2 domain in ratios of 1:10 and 1:25 (lanes 2 & 3) or equivalent ratios of Grb2 SH2 domain (lanes 4 & 5) and subjected to an in vitro kinase assay. (right) Identical experiment following PLCγ1 substrate phosphorylation in the presence of the PLCγ1 and Grb2 SH2 domains. Lane 1 is PLCγ1 substrate alone; lanes 2 & 3 are PLCγ1 substrate:PLCγ1 SH2 domain in a 1:10 and 1:25 ratio, respectively and lanes 4 & 5 are identical ratios of PLCγ1 substrate:Grb2 SH2 domain. 4(c) The Itk SH2 domain competes with autophosphorylation of Y180 within full length Itk. For lanes 2-4, the amount of free SH2 domain is the same as used in panel (a), lanes 2-4. No exogenous SH2 domain has been added in lane 1 and full length Itk is both the enzyme and the substrate. Coomassie stain and an anti-FLAG blot (bottom panels) show protein levels. […] Initial velocities are shown for phosphorylation of peptide B (sequence shown in FIG. 5a) by full length Itk in the absence (column 1) and presence (column 2 and 3) of Itk SH2 domain. […]

[2] = system: Lck kinase domain; assay: Pull-down assay of Lck kinase domain with Itk SH2 domain; type: binding; details: anti-Myc immunoprecipitation, anti-His blot
Excerpt: The Itk SH2 domains were immunoprecipitated using an anti-Myc antibody and the samples were western blotted with an anti-His antibody to detect the presence of the Lck kinase domain. Lanes 1 and 2 are beads alone control.
The samples were washed, boiled, resolved on an SDS-PAGE gel, transferred to PVDF membrane and western blotted with an anti-His antibody (clone HIS.H8 from Upstate). • (1) Wilcox, H. M., and Berg, L. J. (2003) Itk phosphorylation sites are required for functional activity in primary T cells. J Biol Chem 278, 37112-21. • (2) Hawkins, J., and Marcy, A. (2001) Characterization of Itk tyrosine kinase: contribution of noncatalytic domains to enzymatic activity. Protein Expr Purif 22, 211-9.

inhibition of PLCγ1 SH2C-Y783- substrate phosphorylation by free SH2 domain ([1]; substrate:free SH2 domain ratios 1:5 to 1:50): inhibits substrate phosphorylation
B1: PLCγ1 SH2C domain: isolated carboxy-terminal SH2 domain of PLCγ1 (protein)
chain: QTNAHESKEWYHASLTRAQAEHMLMRVPRDGAFLVRKRNEPNSYAISFRAEGKIKHCRVQQEGQTVMLGNSEFDSLVDLISYYEKHPLYRKMKLRYPI

autophosphorylation of Tyr 180 within full length Itk upon addition of free SH2 domain ([1]; full length Itk is both enzyme and substrate): greatly diminished
inhibition of Itk 32 substrate phosphorylation (Y180) by free SH2 domain ([1]; substrate:free SH2 domain ratios 1:10, 1:25, 1:50): inhibits substrate phosphorylation
interaction with Lck kinase domain (pull-down) [2]: direct interaction
B2: Itk SH2 domain: isolated exogenous SH2 domain of Itk, purified from bacteria (protein)
chain: EWYNKSISRDKAEKLLLDTGKEGAFMVRDSRTPGTYTVSVFTKAIISENPCIKHYHIKETNDSPKRYYVAEKYVFDSIPLLIQYHQYNGGGLVTRLRYPVCSWRQKA
